Starred links: 1 amine or outer side, 2 acyl side, 3 side chain; linkers in the order of their positions; H or OH if unused. Positions of bridges follow the written chain, without caps; N, C: chain ends. mBz = 3-(methylene)benzoyl on the N-terminal amine, O=C(c1cccc(C[*:3])c1)[*:2]
B1: 3 (peptide)
peptide: mBz-LCIWIGSSKNPYILCG-NH2
modifications: thioether N-15
SMILES: CC[C@H](C)[C@@H]1NC(=O)[C@H](Cc2c[nH]c3ccccc23)NC(=O)[C@H]([C@@H](C)CC)NC(=O)[C@H](CS)NC(=O)[C@H](CC(C)C)NC(=O)c2cccc(c2)CSC[C@@H](C(=O)NCC(N)=O)NC(=O)[C@H](CC(C)C)NC(=O)[C@H]([C@@H](C)CC)NC(=O)[C@H](Cc2ccc(O)cc2)NC(=O)[C@@H]2CCCN2C(=O)[C@H](CC(N)=O)NC(=O)[C@H](CCCCN)NC(=O)[C@H](CO)NC(=O)[C@H](CO)NC(=O)CNC1=O
notes: also called CP1-L2C; cyclic peptide 3
B2: 4 (peptide)
peptide: mBz-LLCWIGSSKNPYILCG-NH2
modifications: thioether N-15
SMILES: CC[C@H](C)[C@@H]1NC(=O)[C@H](Cc2c[nH]c3ccccc23)NC(=O)[C@H](CS)NC(=O)[C@H](CC(C)C)NC(=O)[C@H](CC(C)C)NC(=O)c2cccc(c2)CSC[C@@H](C(=O)NCC(N)=O)NC(=O)[C@H](CC(C)C)NC(=O)[C@H]([C@@H](C)CC)NC(=O)[C@H](Cc2ccc(O)cc2)NC(=O)[C@@H]2CCCN2C(=O)[C@H](CC(N)=O)NC(=O)[C@H](CCCCN)NC(=O)[C@H](CO)NC(=O)[C@H](CO)NC(=O)CNC1=O
notes: also called CP1-I3C; cyclic peptide 4
B3: 5 (peptide)
peptide: mBz-LLICIGSSKNPYILCG-NH2
modifications: thioether N-15
SMILES: CC[C@H](C)[C@@H]1NC(=O)[C@H](CS)NC(=O)[C@H]([C@@H](C)CC)NC(=O)[C@H](CC(C)C)NC(=O)[C@H](CC(C)C)NC(=O)c2cccc(c2)CSC[C@@H](C(=O)NCC(N)=O)NC(=O)[C@H](CC(C)C)NC(=O)[C@H]([C@@H](C)CC)NC(=O)[C@H](Cc2ccc(O)cc2)NC(=O)[C@@H]2CCCN2C(=O)[C@H](CC(N)=O)NC(=O)[C@H](CCCCN)NC(=O)[C@H](CO)NC(=O)[C@H](CO)NC(=O)CNC1=O
notes: also called CP1-W4C; cyclic peptide 5
B4: 7 (peptide)
peptide: mBz-LLIWICSSKNPYILCG-NH2
modifications: thioether N-15
SMILES: CC[C@H](C)[C@@H]1NC(=O)[C@H](Cc2c[nH]c3ccccc23)NC(=O)[C@H]([C@@H](C)CC)NC(=O)[C@H](CC(C)C)NC(=O)[C@H](CC(C)C)NC(=O)c2cccc(c2)CSC[C@@H](C(=O)NCC(N)=O)NC(=O)[C@H](CC(C)C)NC(=O)[C@H]([C@@H](C)CC)NC(=O)[C@H](Cc2ccc(O)cc2)NC(=O)[C@@H]2CCCN2C(=O)[C@H](CC(N)=O)NC(=O)[C@H](CCCCN)NC(=O)[C@H](CO)NC(=O)[C@H](CO)NC(=O)[C@H](CS)NC1=O
notes: also called CP1-G6C; cyclic peptide 7
B5: 8 (peptide)
peptide: mBz-LLIWIGCSKNPYILCG-NH2
modifications: thioether N-15
SMILES: CC[C@H](C)[C@@H]1NC(=O)[C@H](Cc2c[nH]c3ccccc23)NC(=O)[C@H]([C@@H](C)CC)NC(=O)[C@H](CC(C)C)NC(=O)[C@H](CC(C)C)NC(=O)c2cccc(c2)CSC[C@@H](C(=O)NCC(N)=O)NC(=O)[C@H](CC(C)C)NC(=O)[C@H]([C@@H](C)CC)NC(=O)[C@H](Cc2ccc(O)cc2)NC(=O)[C@@H]2CCCN2C(=O)[C@H](CC(N)=O)NC(=O)[C@H](CCCCN)NC(=O)[C@H](CO)NC(=O)[C@H](CS)NC(=O)CNC1=O
notes: also called CP1-S7C; cyclic peptide 8
B6: 6 (peptide)
peptide: mBz-LLIWCGSSKNPYILCG-NH2
modifications: thioether N-15
SMILES: CC[C@H](C)[C@@H]1NC(=O)[C@H](CC(C)C)NC(=O)[C@H](CC(C)C)NC(=O)c2cccc(c2)CSC[C@@H](C(=O)NCC(N)=O)NC(=O)[C@H](CC(C)C)NC(=O)[C@H]([C@@H](C)CC)NC(=O)[C@H](Cc2ccc(O)cc2)NC(=O)[C@@H]2CCCN2C(=O)[C@H](CC(N)=O)NC(=O)[C@H](CCCCN)NC(=O)[C@H](CO)NC(=O)[C@H](CO)NC(=O)CNC(=O)[C@H](CS)NC(=O)[C@H](Cc2c[nH]c3ccccc23)NC1=O
notes: also called CP1-I5C; cyclic peptide 6

What follows are binders tested against T1, biotinylated-Lys63 linked Di-Ub (UniProt P0CG47 1-76, isopeptide bond between the C-terminal Gly of the distal Ub and Lys63 of the proximal Ub; biotin tag at the N-terminus of the distal Ub) (assay: fluorescence-based competitive assay: unlabeled peptide, 5.0 molar equiv., pre-bound to biotinylated Lys63-linked Di-Ub on a streptavidin plate, then competed with CP1-FITC (1 equiv.); signal change relative to 1 (CP1), Y=[1-(a/b)]x100).
T1 construct: mature; Immobilised on streptavidin plates or on the SPR CAPture chip; also called K63-linked Di-Ub; biotin-Lys63 linked Di-Ub
Procedure: Streptavidin-coated microplate (96 well plate) was washed with HEPES buffer (50 Mm HEPES, 150 Mm NaCl, pH 7.30) and then in each well incubated 1 μg of biotinylated-Lys63-linked Di-Ub in 100 μl of the same buffer at RT. for 30 min. Additional wells were kept without biotinylated-Lys63-Di-Ub for blank subtraction. After the washing step, peptide standard (CP1) and unlabeled peptides were incubated (5.0 molar equivalent relative to biotin-Lys63-linked Di-Ub) at RT for 30 minutes for saturation binding to the target. Then 1 molar equivalent of FITC labeled peptide-standard (CP1-FITC) relative to biotinylated-Lys63-linked Di-Ub was incubated to compete with unlabeled peptides at RT for 30 min. After releasing bounded peptides on treatment with 6 M Guanidinium chloride (Gnd·HCl), the fluorescence values were measured (λex=480 nm and λem=525 nm). These values were normalized and then calculated the relative change in binding with the following formula:
Y=[1−(a/b)]×100 [0289] Where Y=Signal change relative to the standard (CP1) (in terms of %). [0290] a=Measured signal value of each peptide candidate (in Relative Fluorescence Units). [0291] b=Measured signal value of standard peptide (CP1). The dissociation constant (KD) of fluorescein-labeled peptide (CP1-FITC) was calculated in accordance with the literature procedure (Vamisetti G B et al., 2021).

Binding result, binds:
B1
B2
B3
B4
B5
B6
